Laboratory results published in publication PMC11423594, “Identification and characterization of archaeal-type FAD synthase as a novel tractable drug target from the parasitic protozoa Entamoeba histolytica” (mSphere, 2024).

How the values were obtained:
purified protein [1] = substrate: Cc1cc2nc3c(=O)[nH]c(=O)nc-3n(C[C@H](O)[C@H](O)[C@H](O)COP(=O)(O)O)c2cc1C; experiment: purified protein; type: biochemical, Entamoeba histolytica; details: apparent, ATP fixed 100 µM (table footnote prints mM), 5 mM MgCl2, 50 mM Tris-HCl pH 7.5, 35°C
purified protein [2] = substrate: Nc1ncnc2c1ncn2[C@@H]1O[C@H](COP(=O)(O)OP(=O)(O)OP(=O)(O)O)[C@@H](O)[C@H]1O; experiment: purified protein; type: biochemical, Entamoeba histolytica; details: apparent, FMN fixed 200 µM (table footnote prints mM), 5 mM MgCl2, 50 mM Tris-HCl pH 7.5, 35°C

B1: EhFADS (EHI_198800) (Entamoeba histolytica HM-1:IMSS) (protein)
chain: MKGKTKQTKQILHDLKERFGEGPYEVMIAGTFDLIHPGHIHFIQEAAQFGRVIVIIARDSVVKRIKQRETVLDEKMRQSIVEGIKGVSEVVLGCENGNWYEPILKRNPHLFLMGFNQPGDLFRFEKVIHEKGGRTIFRRSNSMEKSYSLQSSSQIRRRVIEIVNNKIQ
Purified protein [1]
  Km: 0.0707 ± 0.0071 mM
  Vmax: 0.06 µmol/min/mg
  kcat: 0.0202 ± 0.002 s⁻¹
Purified protein [2]
  Km: 0.0439 ± 0.0079 mM
  Vmax: 0.0649 µmol/min/mg
  kcat: 0.0218 ± 0.000333 s⁻¹
